Article PMC3932107

Assays:
[1] = biological target: CPM-labeled γ-synuclein (human) (UniProt O76070); test: other fluorescence titration
[2] = biological target: Alexa488-labeled γ-synuclein (human) (UniProt O76070); test: photon counting histogram

Kd [1] [nM] | stoichiometry N [2] | Substance
5 |  | γ-synuclein, purified from E. coli, unlabelled (from UniProt O76070 1-127) (natural protein)
 | 20 | Alexa488-labeled γ-synuclein (from UniProt O76070 1-127) (natural protein)
